According to patent publication US20030133971:

Test system: recombinant SDI-1 protein

Substance: CDK2 (kinase assays of Example 11)
- phosphorylation of histone H1: The recombinant SDI-1 protein of the present invention inhibits the phosphorylation of histone H1 by CDK2
